Data published in PMC5869385.

Target: Torpedo muscle-type α1_(2)β1γδ nicotinic acetylcholine receptor (Torpedo marmorata (endogenous in electric organ)) (UniProt P02711)
Experiment: radioligand binding

Substance “α-cobratoxin from Naja kaouthia (from UniProt P01391 1-71) (natural protein)” has a Ki of 0.397 nM.
